{
  "source": "patent US20200360437A1",
  "biological_target": "NKG2D ligand MIC-A and MIC-B molecules on tumor cells",
  "assay": "cell-based or functional assay",
  "data": [
    {"substance": "fusion protein NKG2D-CD8αhinge-CD8TM-4-1BB-CD3ζ (chimeric antigen receptor expressed on NK-92 cells)", "values": [
      {"measurement": "specific lysis activity (CCK-8), A549 cells, effector:target 0.5:1", "result": 21, "unit": "%"},
      {"measurement": "specific lysis activity (CCK-8), A549 cells, effector:target 1:1", "result": 30, "unit": "%"},
      {"measurement": "specific lysis activity (CCK-8), H1299 cells, effector:target 0.5:1", "result": 39, "unit": "%"},
      {"measurement": "specific lysis activity (CCK-8), H1299 cells, effector:target 1:1", "result": 80, "unit": "%"},
      {"measurement": "specific lysis activity (CCK-8), MCF-7 cells, effector:target 0.5:1", "result": 43, "unit": "%"},
      {"measurement": "specific lysis activity (CCK-8), MCF-7 cells, effector:target 1:1", "result": 56, "unit": "%"},
      {"measurement": "specific lysis activity (CCK-8), MDMB-231 cells, effector:target 0.5:1", "result": 7, "unit": "%"},
      {"measurement": "specific lysis activity (CCK-8), MDMB-231 cells, effector:target 1:1", "result": 14, "unit": "%"},
      {"measurement": "specific lysis activity (CCK-8), SW-480 cells, effector:target 0.5:1", "result": 8, "unit": "%"},
      {"measurement": "specific lysis activity (CCK-8), SW-480 cells, effector:target 1:1", "result": 16, "unit": "%"}
    ]}
  ]
}
